The values that follow come from publication PMC9481602 (Nature Communications, 2022).

The target in experiment [1] is T1, ubiquitin acetylated at K11 (UniProt P0CG48 1-76, acetyllysine (AcK) at position 11).
T1 construct: ubiquitin (Ub), the 76-residue cut product of its precursors; codon-optimized cDNA; K11 replaced by acetyllysine; 15N isotopically labelled in the NMR titration; also called Ub 11AcK; source: E. coli B834 (DE3), amber suppression with AcK-RS/tRNA, purified (HisTrap, His-tag removed with UCHL3, HiTrap SP); not shown: His6, C-terminal, cleaved
As to the kind of experiment: NMR titration; unlabelled Ubiquilin-2 UBA domain added stepwise to 15N-labelled Ub variants (33 µM Ub 11AcK and nonmodified Ub; 157 µM the other variants); 1H-15N HSQC, 298 K, 18.8 T, 20 mM NaH2PO4 pH 6.8, 5% D2O; global fit of six residues assuming 1:1 binding. The note with it: both partners purified.

In experiment [2] the target is T2, nonmodified ubiquitin (UniProt P0CG48 1-76).
T2 construct: ubiquitin (Ub), the 76-residue cut product of its precursors; codon-optimized cDNA; 15N isotopically labelled in the NMR titration; also called Ub (wt); source: E. coli, purified (HisTrap, His-tag removed with UCHL3, HiTrap SP); not shown: His6, C-terminal, cleaved
Described as above. As to conditions: both partners purified.

B1: UBA domain of human Ubiquilin-2 (domain or fragment, UniProt Q9UHD9 581-621, looked up)
chain: RFQQQLEQLNAMGFLNREANLQALIATGGDINAAIERLLGS
notes: Ubiquilin-2 (Chap1, hPLIC-2), human, UBA domain; Unlabelled; also called UQ2-UBA; Chap1; source: E. coli BL21 (DE3) Rosetta, purified (Glutathione Sepharose, TEV cleavage, SEC); not shown: GST, N-terminal, cleaved
For B1, the Kd came to 8 ± 0.8 µM in experiment [1] and 2 ± 0.4 µM in experiment [2].

The Kd is the equilibrium constant for the complex coming apart. The low end stands for tighter binding, the high end for weaker binding.
